Earlier results on one substance are cited in article PMC11794116.

The term Kd denotes the concentration at which binding is half-saturated.

For the data set, the target named is CD16a (F176) (Homo sapiens) (UniProt P08637).
CD16a (F176) (Homo sapiens), sequence (P08637 17-208): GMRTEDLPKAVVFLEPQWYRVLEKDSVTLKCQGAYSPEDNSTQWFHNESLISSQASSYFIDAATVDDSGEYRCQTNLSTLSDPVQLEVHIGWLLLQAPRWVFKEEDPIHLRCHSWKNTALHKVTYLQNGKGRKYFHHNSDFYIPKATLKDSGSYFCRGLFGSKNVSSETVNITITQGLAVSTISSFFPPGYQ

As to trastuzumab Fc, the Kd is 1.07 µM.
